For 1 molecule, percent inhibition of specific binding and Percent Inhibition results are on record in patent publication US20030208060A1.

For test [1], the target named is triglyceride-rich lipoproteins. In words: co-incubation with TGRLP, cell binding and ligand blots.
In test [2] the target is trypsinized VLDL Sf100-400, devoid of apoE (tryp-VLDL) (human) (UniProt P04114). In words: inhibition of 125I-tryp-VLDL1 binding to THP-1 macrophages, 4 °C, LpL 1.6 µg/ml.
Test [3] addresses trypsinized VLDL2 (tryp-VLDL2) (human) (UniProt P04114). In words: inhibition of 125I-tryp-VLDL2 binding to THP-1 macrophages, 4 °C, LpL 1.0 µg/ml.

B1: lipoprotein lipase (enzyme, UniProt P06858 28-475, looked up, species assumed)
Lipoprotein lipase: ADQRRDFIDIESKFALRTPEDTAEDTCHLIPGVAESVATCHFNHSSKTFMVIHGWTVTGMYESWVPKLVAALYKREPDSNVIVVDWLSRAQEHYPVSAGYTKLVGQDVARFINWMEEEFNYPLDNVHLLGYSLGAHAAGIAGSLTNKKVNRITGLDPAGPNFEYAEAPSRLSPDDADFVDVLHTFTRGSPGRSIGIQKPVGHVDIYPNGGTFQPGCNIGEAIRVIAERGLGDVDQLVKCSHERSIHLFIDSLLNEENPSKAYRCSSKEAFEKGLCLSCRKNRCNNLGYEINKVRAKRSSKMYLKTRSQMPYKVFHYQVKIHFSGTESETHTNQAFEISLYGTVAESENIPFTLPEVSTNKTYSFLIYTEVDIGELLMLKLKWKSDSYFSWSDWWSSPGFAIQKIRVKAGETQKKVIFCSREKVSHLQKGKAPAVFVKCHDKSLNKKSG
Take B1: in test [1], the percent inhibition of specific binding is 25%. Besides, the Percent Inhibition in test [2] was found to be 26%; in test [3] it was 17%.
